{"source": "paper PMC2673439", "key": {"tvMyb1(35-141)": {"target": "T1, tvMyb1(35-141) (Trichomonas vaginalis, UniProt Q58HP2 35-141)", "T1 sequence": "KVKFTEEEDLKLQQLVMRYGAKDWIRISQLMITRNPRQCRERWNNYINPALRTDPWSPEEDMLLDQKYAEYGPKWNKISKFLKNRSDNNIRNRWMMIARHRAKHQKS", "experiment": "SPR"}, "tvMyb1(35-141) T67A": {"target": "T2, tvMyb1(35-141) T67A (Trichomonas vaginalis, UniProt Q58HP2 35-141, T67A)", "T2 sequence": "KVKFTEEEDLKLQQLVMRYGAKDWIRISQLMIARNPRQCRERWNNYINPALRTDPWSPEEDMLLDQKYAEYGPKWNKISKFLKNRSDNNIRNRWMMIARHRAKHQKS", "experiment": "SPR"}}}
{"binder": "MRE-1/MRE-2r 16-bp duplex, 5'-biotin (dsDNA) DNA 1: AAGATAACGATATTTA DNA 2: TAAATATCGTTATCTT", "values": [{"measurement": "Kd", "setting": "tvMyb1(35-141)", "value": 1.24, "unit": "nM"}, {"measurement": "binding result", "setting": "tvMyb1(35-141) T67A", "value": "binds"}]}
